Tests used:
[1] = molecular target: antigen of the 'Antigen binding ELISA' (not given); assay: Antigen binding ELISA of stability sample; F0; 25 °C 1 month
[2] = molecular target: antigen of the 'Antigen binding ELISA' (not given); assay: Antigen binding ELISA of stability sample; F0; 25 °C 2 months
[3] = molecular target: antigen of the 'Antigen binding ELISA' (not given); assay: Antigen binding ELISA of stability sample; F15; 25 °C 1 month
[4] = molecular target: antigen of the 'Antigen binding ELISA' (not given); assay: Antigen binding ELISA of stability sample; F18; 25 °C 1 month
[5] = molecular target: antigen of the 'Antigen binding ELISA' (not given); assay: Antigen binding ELISA of stability sample; F15; 25 °C 2 months
[6] = molecular target: antigen of the 'Antigen binding ELISA' (not given); assay: Antigen binding ELISA of stability sample; F18; 25 °C 2 months
[7] = molecular target: antigen of the 'Antigen binding ELISA' (not given); assay: Antigen binding ELISA of stressed sample; F15; 25 °C dark 7 days
[8] = molecular target: antigen of the 'Antigen binding ELISA' (not given); assay: Antigen binding ELISA of stressed sample; F18; 25 °C dark 7 days
[9] = molecular target: antigen of the 'Antigen binding ELISA' (not given); assay: Antigen binding ELISA of stressed sample; F15; 25 °C 1000 lx 7 days
[10] = molecular target: antigen of the 'Antigen binding ELISA' (not given); assay: Antigen binding ELISA of stressed sample; F15; 3 freeze-thaw cycles
[11] = molecular target: antigen of the 'Antigen binding ELISA' (not given); assay: Antigen binding ELISA of stressed sample; F18; 25 °C 1000 lx 7 days
[12] = molecular target: antigen of the 'Antigen binding ELISA' (not given); assay: Antigen binding ELISA of stressed sample; F18; 3 freeze-thaw cycles
[13] = molecular target: antigen of the 'Antigen binding ELISA' (not given); assay: Antigen binding ELISA of stability sample; F15 without methionine; initial
[14] = molecular target: antigen of the 'Antigen binding ELISA' (not given); assay: Antigen binding ELISA of stability sample; F18 with 10 mM methionine; initial
[15] = molecular target: antigen of the 'Antigen binding ELISA' (not given); assay: Antigen binding ELISA of stability sample; F18 with methionine; 5 °C 2 months
[16] = molecular target: antigen of the 'Antigen binding ELISA' (not given); assay: Antigen binding ELISA of stability sample; F0; initial (repeated from Table 37)
[17] = molecular target: antigen of the 'Antigen binding ELISA' (not given); assay: Antigen binding ELISA of stressed sample; F15; initial (repeated from Table 37)
[18] = molecular target: antigen of the 'Antigen binding ELISA' (not given); assay: Antigen binding ELISA of stressed sample; F18; initial (repeated from Table 41A)
[19] = molecular target: antigen of the 'Antigen binding ELISA' (not given); assay: Antigen binding ELISA of stability sample; F0; 5 °C 2 months (same value as Table 37)
[20] = molecular target: antigen of the 'Antigen binding ELISA' (not given); assay: Antigen binding ELISA of stability sample; F18 with methionine; initial (repeated from Table 41A)
[21] = molecular target: antigen of the 'Antigen binding ELISA' (not given); assay: Antigen binding ELISA of stability sample; F15 without methionine; initial (same value as Table 37)
[22] = molecular target: antigen of the 'Antigen binding ELISA' (not given); assay: Antigen binding ELISA of stability sample; F15 without methionine; 5 °C 2 months (same value as Table 37)

ELISA (Antigen binding ELISA), report result [1]: 103%
ELISA (Antigen binding ELISA), report result [2]: 91.8%
ELISA (Antigen binding ELISA), report result [3]: 104%
ELISA (Antigen binding ELISA), report result [4]: 97%
ELISA (Antigen binding ELISA), report result [5]: 96.9%
ELISA (Antigen binding ELISA), report result [6]: 97.8%
ELISA (Antigen binding ELISA), report result [7]: 107%
ELISA (Antigen binding ELISA), report result [8]: 105%
ELISA (Antigen binding ELISA), report result [9]: 101%
ELISA (Antigen binding ELISA), report result [10]: 108%
ELISA (Antigen binding ELISA), report result [11]: 109%
ELISA (Antigen binding ELISA), report result [12]: 106%
ELISA (Antigen binding ELISA), report result [13]: 102%
ELISA (Antigen binding ELISA), report result [14]: 108%
ELISA (Antigen binding ELISA), report result [15]: 118%
ELISA (Antigen binding ELISA), report result [16]: 101%
ELISA (Antigen binding ELISA), report result [17]: 102%
ELISA (Antigen binding ELISA), report result [18]: 108%
ELISA (Antigen binding ELISA), report result [19]: 103%
ELISA (Antigen binding ELISA), report result [20]: 108%
ELISA (Antigen binding ELISA), report result [21]: 102%
ELISA (Antigen binding ELISA), report result [22]: 123%
Substance: BAN2401 (antibody)
